# From PMC9093105
# Biological target: Human sapovirus (HuSaV) GI.6 capsid protein VP1, Nichinan strain, self-assembled as a virus-like particle (VLP) (human sapovirus GI.6, Nichinan strain)
# Assay: cryo-EM structure; single-particle cryo-EM of purified VLPs in Express Five SFM, icosahedral symmetry imposed, 2.9 Å; de novo atomic model
substance,measurement,value
"Human sapovirus (HuSaV) GI.6 capsid protein VP1, Nichinan strain, self-assembled as a virus-like particle (VLP) (natural protein)",stoichiometry N,180 copies
